B1: Gigaxonin (Homo sapiens), Q9H2C0 (parent)
chain: MAEGSAVSDPQHAARLLRALSSFREESRFCDAHLVLDGEEIPVQKNILAAASPYIRTKLNYNPPKDDGSTYKIELEGISVMVMREILDYIFSGQIRLNEDTIQDVVQAADLLLLTDLKTLCCEFLEGCIAAENCIGIRDFALHYCLHHVHYLATEYLETHFRDVSSTEEFLELSPQKLKEVISLEKLNVGNERYVFEAVIRWIAHDTEIRKVHMKDVMSALWVSGLDSSYLREQMLNEPLVREIVKECSNIPLSQPQQGEAMLANFKPRGYSECIVTVGGEERVSRKPTAAMRCMCPLYDPNRQLWIELAPLSMPRINHGVLSAEGFLFVFGGQDENKQTLSSGEKYDPDANTWTALPPMNEARHNFGIVEIDGMLYILGGEDGEKELISMECYDIYSKTWTKQPDLTMVRKIGCYAAMKKKIYAMGGGSYGKLFESVECYDPRTQQWTAICPLKERRFGAVACGVAMELYVFGGVRSREDAQGSEMVTCKSEFYHDEFKRWIYLNDQNLCIPASSSFVYGAVPIGASIYVIGDLDTGTNYDYVREFKRSTGTWHHTKPLLPSDLRRTGCAALRIANCKLFRLQLQQGLFRIRVHSP

Variants of: B1
Conditions: with tbcb_human TBCB

effect of a mutation on the interaction	Variant
disrupting interaction	R545C

From IntAct's records for PubMed 16303566
